Numbering of substitutions follows the chain as printed.
Key:
[1] = test system: multiple additional solid tumor indications; settings: cited from earlier work
[2] = test system: H1975 cells; assay: Internalization of AF647-labeled antibodies, live cell confocal fluorescence microscopy; assay type: cell-based; settings: for internalization profile: single-arm control antibodies
Protocol: (§1) Internalization kinetics of AlexaFluor647 (AF647) primary-labeled DuetMabs: RAA22/B09 and QD6/B09 antibodies was assessed in vitro using the EGFR and c-MET expressing cell line, H1975. Each antibody was pre-bound to cells and antibody translocation from cell surface to cytoplasm was then monitored using live cell confocal fluorescence microscopy. Both antibodies localized primarily on the cell surface before (T=0) subjecting to internalization conditions and were translocated to the cytoplasm area after 1 hour (data not shown). Kinetic images were taken every 5 min over the time course of internalization and were processed using a quantitative algorithm to determine internalization kinetic constants and half-times.
To evaluate the mode of antibody internalization and to investigate contribution of each arm to overall internalization of the DuetMabs, we evaluated internalization of single-arm specific control antibody molecules, QD6/IgG and B09/IgG, against duet QD6/B09, and RAA22/IgG and B09/IgG against duet RAA22/B09 in H1975 cells, which express both EGFR and c-MET. Since only one arm is specific for the target receptor, the control antibody can only internalize via one receptor eliminating dual receptor targeting and cross-linking as mode of internalization.

[3] = test system: HCC827 cells; assay: as above; assay type: cell-based; settings: HCC827 cells
Protocol: as §1
Since binding of both EGFR and c-MET arms to target receptor promoted RAA22/B09 receptor internalization in H1975 cells, we examined if the increased number of EGFR and c-MET receptors would affect internalization properties. The respective receptor levels determined by Western Blot were ˜33,000 for EGFR and ˜50,000 for c-MET in H1975 cells and ˜790,000 for EGFR and ˜523,000 for c-MET in HCC827 cells.

[4] = target: T1, Mouse EGFR (Mus musculus, UniProt Q01279); assay: SPR (BIAcore T200) antibody capture kinetics; assay type: binding; settings: 25° C.
T1 construct: purchased SinoBiological 51091-M08H
Protocol: (§2) Mouse anti-human IgG was immobilized on a CM4 sensor chip with a final surface density of ˜2000 resonance units (RUs). A reference flow cell surface was also prepared on this sensor chip using identical immobilization protocol. Test and control article antibodies were prepared at 5-20 nM in instrument buffer (HBS-EP buffer; 0.01M HEPES, pH 7.4, 0.15M NaCl, 3 mM EDTA, and 0.005% P-20), along with 3-fold serial dilutions of purified EGFR (0.27-200 nM human, 0.4-900 nM cyno, and 4-1000 nM murine) or cMET proteins (0.27 to 66 nM human and 0.27-22 nM cyno) in instrument buffer. A sequential approach was utilized for kinetic measurements. Antibodies were first injected over the capture surface, at a flow rate of 10 μL/minute. Once the binding of the captured antibody stabilized, a single concentration of the analyte was injected over both capture and reference surfaces, at a flow rate of 75 μL/minute. The resulting binding response curves yielded the association phase data. Following the injection of analyte, the flow was then switched back to instrument buffer for 15 minutes to permit the collection of dissociation phase data, followed by a 1-minute pulse of 10 mM glycine, pH 1.5, to regenerate the antibody-captured surface on the chip. Binding responses against test and control article antibodies were recorded from duplicate injections of each concentration of analyte. In addition, several buffer injections were interspersed throughout the injection series. Select buffer injections were used along with the reference cell responses to correct the raw data sets for injection artifacts and/or nonspecific binding interactions, commonly referred to as “double referencing”. Corrected binding data were globally fit to a 1:1 binding model (Biacore T200 Evaluation software 2.0, GE Healthcare, Pittsburgh, PA).

[5] = test system: Cynomolgus monkey EGFR; assay: SPR (BIAcore T200) antibody capture kinetics; assay type: binding; settings: 25° C.
Protocol: as §2

[6] = target: T2, Human EGFR (Homo sapiens, UniProt P00533); assay: SPR (BIAcore T200) antibody capture kinetics; assay type: binding; settings: 25° C.
Protocol: as §2

[7] = target: T1, Mouse EGFR; assay: ELISA species cross reactivity; assay type: binding
Protocol: (§3) Specificity for EGFR and cMET species paralogs and closely related family members was determined by ELISA. Briefly, antigen solutions were prepared in PBS at 1 μg/mL and 50 microliters was coated onto half area ELISA assay plates. Plates were washed and blocked with 1% BSA in PBS containing 0.005% Tween-20 (PBS-T) for one hour at room temperature. The wells were washed 4 times in PBS-T. As set out in FIG. 3, the primary antibodies used where: R374 (a non-binding IgG1 isotype control antibody), B09 (anti-cMET antibody), QD6 (anti-EGFR antibody), RAA22 (anti-EGFR antibody), QD6/B09 (bispecific EGFR/c-MET DuetMAb), RAA22/B09 (bispecific EGFR/c-MET DuetMAb), PaniX (anti-EGFR antibody), MetMab (anti-cMET antibody) and Mab11311 (anti-HER4 antibody). Wells were incubated with 50 microliters of the indicated primary antibodies diluted in PBS-T in a 1:3 dilution series, starting at 10 μg/mL and ending at 0.002 μg/mL, except for the HER4 binding mAb control, MAB1131, for which the series started at 1 μg/mL. The wells were washed 4 times in PBS-T, then 50 μl of goat anti-human Fab HRP-labeled secondary antibody, diluted 1:5000 in PBS-T, was added to each well and incubated for one hour at room temperature. […] 50 microliters of TMB stop solution was added to all wells and the absorbance was read at 450 nm on a SpectraMax M5 microplate reader. Data were analyzed in the SoftMax Pro 5 software and plotted using GraphPad Prism 7 graphing software.
(§4) To determine the species cross reactivity, ELISA assays were carried out as described above. […] There was no detectable binding of any of the antibodies to mouse cMET.

[8] = test system: Cynomolgus monkey EGFR; assay: ELISA species cross reactivity; assay type: binding
Protocol: as §3, §4

[9] = target: T2, Human EGFR; assay: ELISA species cross reactivity; assay type: binding; settings: antibody 10 to 0.002 μg/mL
Protocol: as §3, §4

For ABT-414, the efficacy ([1]; Phase II trials, tolerated doses) is listed as “limited efficacy at tolerated doses” and the ocular toxicities ([1]; treated patients) is listed as “concerning ocular toxicities were frequently observed in treated patients”.

B1: RAA22/IgG: single-arm specific control antibody molecule with RAA22 EGFR arm (antibody, V domains shown)
VH: QVQLVQSGAEVKKPGSSVKVSCKASGGTFSDNDFSWVRQAPGQGLEWMGAIVAVFRTETYAQKFQDRVKITADISTRTTYMELSSLRSEDTAVYYCARRLMSAISGPGAPLLMWGQGTLVTVSS
VL: QSALTQPRSVSGSPGQSVTISCTGTSSDVGGYNYVSWYQQHPGKAPKLMIYDVSKRPSGVPDRFSGSKSGNTASLTISGLQAEDEADYYCSSYTSSDTLEIFGGGTKLTVL
With B1 the “number of molecules, fold less than for the RAA22-B09 DuetMab (based on fluorescent intensity)” value [2] was 10.98 fold, the internalization profile [2] was “rapid internalization” and the “intensity profiles, fold lower than RAA22/B09” value [3] was about 10 fold.

B2: QD6/IgG: single-arm specific control antibody molecule with QD6 EGFR arm (antibody, V domains shown)
VH: B1 VH with F55V
VL: B1 VL with K55E, S91F
In the case of B2, the internalization profile [2] is reported as “near-identical internalization time course as the QD6/B09 DuetMab”.

B3: QD6 IgG: high affinity anti-EGFR IgG1 antibody clone, VH SEQ ID NO: 18, VL SEQ ID NO: 22 (antibody, V domains shown)
VH: B1 VH with F55V
VL: B1 VL with K55E, S91F
Work on B3 yielded a Koff [4] of 0.000735 s⁻¹, a Kon [4] of 167000 M⁻¹ s⁻¹ and a Koff [5] of 0.000288 s⁻¹. For the same molecule, the Kon [5] was 114000 M⁻¹ s⁻¹, the Koff [6] was 0.000292 s⁻¹ and the Kon ([6]; 1:1 binding model) was 148000 M⁻¹ s⁻¹. For the same molecule, the ELISA binding [7] was “gave robust signals”, the ELISA binding [8] was “gave robust signals” and the ELISA binding [9] was “gave robust signals”.

B4: B09/IgG: single-arm specific control antibody molecule with B09 cMET arm (antibody, V domains shown)
VH: QVQLVQSGAEVKKPGASVKVSCKASGYTFTDYYIHWVRQATGQGLEWMGWMNPNSGNTGYAQKFQGRVTMTRDTSISTAYMELSSLRSEDTAVYYCARGQGYTHSWGQGTMVTVSS
VL: DIQMTQSPSTLSASVGDRVTITCRASEGIYHWLAWYQQKPGKAPKLLIYKASSLASGVPSRFSGSGSGTEFTLTISSLQPDDFATYYCQQYSNYPPTFGGGTKLEIK
modifications: left off: another chain or arm of the molecule; a dimerising Fc or GST; small tags and cut ends
With B4 the internalization profile [2] was “very small level of internalization” and the internalization profile [3] was “dissociates from cell membrane”.

— patent US20260166140A1, “Combinations Involving Epidermal Growth Factor Receptor Tyrosine Kinase Inhibitors For the Treatment of Cancer” (AstraZeneca AB, priority 2022, published 2026)
